Laboratory results from PMC10723402.
Read-outs that look alike come from different tables or passages of the source.

Key:
Gsx2HD I234E = Gsx2HD I234E (Mus musculus, UniProt P31316 203-264, I234E); assay: ITC
Gsx2HD S212E [1] = biological target: T1, Gsx2HD S212E (Mus musculus, UniProt P31316 203-264, S212E); assay: EMSA
Gsx2HD L216E [2] = biological target: T2, Gsx2HD L216E (Mus musculus, UniProt P31316 203-264, L216E); assay: EMSA
Gsx2HD L231E [3] = biological target: T3, Gsx2HD L231E (Mus musculus, UniProt P31316 203-264, L231E); assay: EMSA
T3 sequence (P31316 203-264 L231E): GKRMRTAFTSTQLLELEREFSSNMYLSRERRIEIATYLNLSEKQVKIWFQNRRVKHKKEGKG

Gsx2 167-305 [4] = biological target: T4, Gsx2 167-305 (Mus musculus, UniProt P31316 167-305); assay: EMSA
T4 sequence (P31316 167-305): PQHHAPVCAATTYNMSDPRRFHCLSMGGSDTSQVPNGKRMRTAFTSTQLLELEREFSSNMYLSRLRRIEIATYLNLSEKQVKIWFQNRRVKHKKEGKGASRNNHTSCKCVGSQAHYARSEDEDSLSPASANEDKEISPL

Gsx2 167-305 [5] = biological target: T4, Gsx2 167-305; assay: EMSA; remark: listed apart in the source
Gsx2HD S212E [6] = biological target: T1, Gsx2HD S212E; assay: EMSA; remark: listed apart in the source
Gsx2HD L216E [7] = biological target: T2, Gsx2HD L216E; assay: EMSA; remark: listed apart in the source
Gsx2HD L231E [8] = biological target: T3, Gsx2HD L231E; assay: EMSA; remark: listed apart in the source
Gsx2HD = Gsx2HD (Mus musculus, UniProt P31316 203-264); assay: ITC
Sequence of Gsx2HD (P31316 203-264): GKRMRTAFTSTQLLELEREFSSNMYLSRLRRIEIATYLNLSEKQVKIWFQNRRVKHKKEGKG

Gsx2 167-305 [9] = biological target: T4, Gsx2 167-305; assay: ITC

T1 sequence (P31316 203-264 S212E): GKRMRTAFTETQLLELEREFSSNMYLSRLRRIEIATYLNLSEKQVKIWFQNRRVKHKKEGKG
T2 sequence (P31316 203-264 L216E): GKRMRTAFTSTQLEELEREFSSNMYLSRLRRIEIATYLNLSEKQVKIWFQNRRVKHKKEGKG
Sequence of Gsx2HD I234E (P31316 203-264 I234E): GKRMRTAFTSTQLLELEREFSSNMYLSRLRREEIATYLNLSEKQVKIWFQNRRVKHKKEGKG

B1: TAATTA consensus monomer site 15mer (dsDNA)
DNA 1: TGAGCTAATTAAAGC
DNA 2: AGCTTTAATTAGCTC
Q: B1 was tested. Which Kd (Gsx2HD I234E) did it give?
A: 20 nM

B2: 7bpS dimer probe (= AAATT spacer probe) (dsDNA)
DNA 1: TCCAACTAATTAAAATTTAATTCGTAGTGCGGGCGTGGCT
DNA 2: CGAATTAAATTTTAATTAGTTGGA
DNA 3: AGCCACGCCCGCACTA
Q: Which results are given for B2?
A: binding result (Gsx2HD S212E [1]): binds; binding result (Gsx2HD L216E [2]): binds; binding result (Gsx2HD L231E [3]): binds

B3: ATATT spacer dimer probe (dsDNA)
DNA 1: TCCAACTAATTAATATTTAATTCGTAGTGCGGGCGTGGCT
DNA 2: CGAATTAAATATTAATTAGTTGGA
DNA 3: AGCCACGCCCGCACTA
Q: Does B3 bind (Gsx2 167-305 [4])?
A: binds

B4: AATTT spacer dimer probe (dsDNA)
DNA 1: TCCAACTAATTAAATTTTAATTCGTAGTGCGGGCGTGGCT
DNA 2: CGAATTAAAATTTAATTAGTTGGA
DNA 3: AGCCACGCCCGCACTA
Q: Does B4 bind (Gsx2 167-305 [4])?
A: binds

B5: GGGCC spacer dimer probe (dsDNA)
DNA 1: TCCAACTAATTAGGGCCTAATTCGTAGTGCGGGCGTGGCT
DNA 2: CGAATTAGGCCCTAATTAGTTGGA
DNA 3: AGCCACGCCCGCACTA
Q: Does B5 bind (Gsx2 167-305 [5])?
A: binds

B6: GCGGG spacer dimer probe (dsDNA)
DNA 1: TCCAACTAATTAGCGGGTAATTCGTAGTGCGGGCGTGGCT
DNA 2: CGAATTACCCGCTAATTAGTTGGA
DNA 3: AGCCACGCCCGCACTA
Q: Does B6 bind (Gsx2 167-305 [5])?
A: binds

B7: GCCGG spacer dimer probe (dsDNA)
DNA 1: TCCAACTAATTAGCCGGTAATTCGTAGTGCGGGCGTGGCT
DNA 2: CGAATTACCGGCTAATTAGTTGGA
DNA 3: AGCCACGCCCGCACTA
Q: Does B7 bind (Gsx2 167-305 [5])?
A: binds

B8: 8bpS dimer probe (dsDNA)
DNA 1: TCCAACTAATTAAAGATTTAATTCGTAGTGCGGGCGTGGCT
DNA 2: CGAATTAAATCTTTAATTAGTTGGA
DNA 3: AGCCACGCCCGCACTA
Q: Which results are given for B8?
A: binding result (Gsx2HD S212E [6]): binds; binding result (Gsx2HD L216E [7]): binds; binding result (Gsx2HD L231E [8]): binds

B9: TAATGG (common Q50) monomer site 15mer (dsDNA)
DNA 1: TGAGCTAATGGAAGC
DNA 2: AGCTTCCATTAGCTC
Q: B9 was tested. Which Kd (Gsx2HD) did it give?
A: 36 nM

Q: And the Kd (Gsx2 167-305 [9])?
A: 143 nM
